One protein from article PMC7895871 (Protein & Cell, 2020) can be followed below.

The data set deals with the molecule itself. The data set is described as follows: cryo-EM structure; human MCU-EMRE-MICU1-MICU2 supercomplex co-expressed in HEK 293F, pulled down by C-terminally Strep-tagged EMRE; Titan Krios, K2; overall map 3.3–3.7 Å.

B1: MCU (mitochondrial calcium uniporter), subunit of the human MCU-EMRE-MICU1-MICU2 supercomplex (MEMMS) (natural protein)
chain: DDVTVVYQNGLPVISVRLPSRRERCQFTLKPISDSVGVFLRQLQEEDRGIDRVAIYSPDGVRVAASTGIDLLLLDDFKLVINDLTYHVRPPKRDLLSHENAATLNDVKTLVQQLYTTLCIEQHQLNKERELIERLEDLKEQLAPLEKVRIEISRKAEKRTTLVLWGGLAYMATQFGILARLTWWEYSWDIMEPVTYFITYGSAMAMYAYFVMTRQEYVYPEARDRQYLLFFHKGAKKSRFDLEKYNQLKDAIAQAEMDLKRLRDPLQVHLPLRQIG
notes: MCU, human; pore-forming subunit with NTD, CCD and TMD; Four MCU subunits form one channel (tetramer); the supercomplex holds two such tetramers joined at the NTDs; Construct limits and any tags are in the supplementary Methods; source: HEK 293F cells transfected by BacMam viruses, co-expressed; complex pulled down by the C-terminally Strep-tagged EMRE
As to B1, the stoichiometry N (in general, a count of units in the complex or per binding partner) was 4.
